The values below come from article doi:10.1101/2020.10.30.362368 (bioRxiv, 2020).

The term Kd denotes the concentration at which binding is half-saturated.

Series [1] concerns the target V. harveyi His-RNAP alpha (RNA polymerase alpha subunit) (Vibrio harveyi, UniProt A0A0B4IMU9 1-330). Nature of the series: BLI. (In BLI a coated tip is dipped into the sample, and binding shifts an interference pattern.)
Another series has as its target T1, SmcR WT (Vibrio vulnificus, UniProt Q9L8G8 1-205).
T1 sequence: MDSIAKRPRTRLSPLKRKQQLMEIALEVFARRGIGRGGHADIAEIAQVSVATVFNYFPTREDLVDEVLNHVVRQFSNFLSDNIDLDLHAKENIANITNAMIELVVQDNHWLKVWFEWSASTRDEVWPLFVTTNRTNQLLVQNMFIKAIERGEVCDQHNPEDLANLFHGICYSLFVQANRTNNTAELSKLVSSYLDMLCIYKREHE
The series can be described thus: EMSA.

The target of the next series is T2, SmcR N55I (Vibrio vulnificus, UniProt Q9L8G8 1-205, N55I).
T2 sequence: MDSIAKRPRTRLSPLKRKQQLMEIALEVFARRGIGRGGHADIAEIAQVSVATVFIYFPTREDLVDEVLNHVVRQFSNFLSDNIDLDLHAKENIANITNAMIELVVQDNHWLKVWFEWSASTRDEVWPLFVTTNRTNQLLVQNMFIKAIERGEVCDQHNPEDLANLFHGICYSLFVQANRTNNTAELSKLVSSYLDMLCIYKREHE
The series can be described thus: EMSA. In general terms: Mobility shift assays separate free from complexed probe on a gel.

B1: SmcR wild-type, untagged (Vibrio vulnificus quorum-sensing transcription factor) (natural protein)
chain: MDSIAKRPRTRLSPLKRKQQLMEIALEVFARRGIGRGGHADIAEIAQVSVATVFNYFPTREDLVDEVLNHVVRQFSNFLSDNIDLDLHAKENIANITNAMIELVVQDNHWLKVWFEWSASTRDEVWPLFVTTNRTNQLLVQNMFIKAIERGEVCDQHNPEDLANLFHGICYSLFVQANRTNNTAELSKLVSSYLDMLCIYKREHE
Consider B1, for which, in series [1], binding was put at a Kd of 142 nM.

B2: SmcR N55I, untagged (natural protein)
chain: MDSIAKRPRTRLSPLKRKQQLMEIALEVFARRGIGRGGHADIAEIAQVSVATVFIYFPTREDLVDEVLNHVVRQFSNFLSDNIDLDLHAKENIANITNAMIELVVQDNHWLKVWFEWSASTRDEVWPLFVTTNRTNQLLVQNMFIKAIERGEVCDQHNPEDLANLFHGICYSLFVQANRTNNTAELSKLVSSYLDMLCIYKREHE
Turning to B2, binding in series [1] was put at a Kd of 160 nM. The Kd values of the last two molecules are within 1.5-fold of each other.

B3: PluxC site D (site E mutated) (dsDNA)
DNA 1: TTTGTTAAATGTTATGACTAATTATAAATAAATCAAACGCGCGTTAGATT
DNA 2: AATCTAACGCGCGTTTGATTTATTTATAATTAGTCATAACATTTAACAAA
On to B3, for which the binding result in the series with SmcR WT is reported as “binds”.

B4: PluxC site E (site D mutated) (dsDNA)
DNA 1: TTTGTTAAATGTTGCGCGTAATTATAAATAAATCAAACTATAATTAGATT
DNA 2: AATCTAATTATAGTTTGATTTATTTATAATTACGCGCAACATTTAACAAA
For B4, in the series with SmcR WT, the binding result is “binds”.

B5: PluxC site B (JDN55/JDN54) (dsDNA)
DNA 1: TTACTTATTTATAGTGTTACAAATAACATTA
DNA 2: TAATGTTATTTGTAACACTATAAATAAGTAA
Take B5: the binding result with SmcR WT and in the series with SmcR N55I was “binds” throughout.
